{"source": "paper doi:10.1101/2025.09.17.676191", "about": "(bioRxiv, 2025)", "proteins": {"B1": {"name": "wild-type mouse TRPV3 channel (natural protein, UniProt Q8K424 1-791, looked up)", "chain": "MNAHSKEMAPLMGKRTTAPGGNPVVLTEKRPADLTPTKKSAHFFLEIEGFEPNPTVTKTSPPIFSKPMDSNIRQCLSGNCDDMDSPQSPQDDVTETPSNPNSPSANLAKEEQRQKKKRLKKRIFAAVSEGCVEELRELLQDLQDLCRRRRGLDVPDFLMHKLTASDTGKTCLMKALLNINPNTKEIVRILLAFAEENDILDRFINAEYTEEAYEGQTALNIAIERRQGDITAVLIAAGADVNAHAKGVFFNPKYQHEGFYFGETPLALAACTNQPEIVQLLMENEQTDITSQDSRGNNILHALVTVAEDFKTQNDFVKRMYDMILLRSGNWELETMRNNDGLTPLQLAAKMGKAEILKYILSREIKEKPLRSLSRKFTDWAYGPVSSSLYDLTNVDTTTDNSVLEIIVYNTNIDNRHEMLTLEPLHTLLHTKWKKFAKYMFFLSFCFYFFYNITLTLVSYYRPREDEDLPHPLALTHKMSWLQLLGRMFVLIWATCISVKEGIAIFLLRPSDLQSILSDAWFHFVFFVQAVLVILSVFLYLFAYKEYLACLVLAMALGWANMLYYTRGFQSMGMYSVMIQKVILHDVLKFLFVYILFLLGFGVALASLIEKCSKDKKDCSSYGSFSDAVLELFKLTIGLGDLNIQQNSTYPILFLFLLITYVILTFVLLLNMLIALMGETVENVSKESERIWRLQRARTILEFEKMLPEWLRSRFRMGELCKVADEDFRLCLRINEVKWTEWKTHVSFLNEDPGPIRRTADLNKIQDSSRSNSKTTLYAFDELDEFPETSV"}}, "target": "the molecule itself", "experiment": "cryo-EM structure"}
{"protein": "B1", "values": [{"measurement": "stoichiometry N", "result": 4}]}
